Molecular target: BG505.SOSIP.664 Env trimer (heterologous clade A native-like trimer containing the N332 glycan) (HIV-1 clade A, isolate BG505 …, stabilised)
Assay: cell-based or functional assay

B1: QA013.2 CDRH3 point mutant antibody D106V (mature VH D106V paired with the mature light chain) (antibody, V domains shown)
VH: DIRIAESGGGLVQPGESLRLACEIIELGFRRAWTTWVRQAPGKGLEWVADINEDGSEKKYGPSVTGRFTISRDNGKNLVFLQMNSLRVEDTATYYCAREAYHLVYVDRIPRGNWFDPWGPGTLVTVSS
VL: QSVLTQPPSVSGAPGQRVVISCTGSRSNIGAGYDVHWYQQSPGKVPRIIIYGSNSRSSGVPARFSGSKSGTSASLAITGLQAEDEADYYCQSYDTTLTASVFGGGTKVTVL
average fold increase in neutralisation IC50 across all tested pseudoviruses relative to the mature bnAb (TZM-bl assay): 40 fold

From article doi:10.1101/2021.03.15.435484, “Functional development of a V3-specific broadly neutralizing antibody isolated from a case of HIV superinfection” (bioRxiv, 2021)
